Measurements: patent US7794719 (dated 2010)

Assays:
Aβ1-40 fibers = Aβ1-40 fibers (human); test: SPR
Aβ1-42 fibers = Aβ1-42 fibers (human); test: SPR

Row | Binder | Kd (Aβ1-40 fibers) | Kd (Aβ1-42 fibers)
1 | MS-R 3.6H5 x 3.6L1 Fab (antibody, V domains shown) VH: QLVESGGGLVQPGGSLRLSCAASGFTFSSYAMSWVRQAPGKGLEWVSAISESGKTKYYADSVKGRFTISRDNSKNTLYLQMNSLRAEDTAVYYCARLTHYARYYRYFDVWGQGTLVTVSS VL: DIVLTQSPATLSLSPGERATLSCRASQFIQRFYLAWYQQKPGQAPRLLIYGASSRATGVPARFSGSGSGTDFTLTISSLEPEDFAVYYCQQTYNYPPTFGQGTKVEIKR | 1.25 nM | 1.04 nM
2 | MS-R 7.4H2 x 7.12L2 Fab (antibody, V domains shown) VH: QLVESGGGLVQPGGSLRLSCAASGFTFSSYAMSWVRQAPGKGLEWVSAINYNGARIYYADSVKGRFTISRDNSKNTLYLQMNSLRAEDTAVYYCARGKGNTHKPYGYVRYFDVWGQGTLVTVSS VL: DIVLTQSPATLSLSPGERATLSCRASQRFFYKYLAWYQQKPGQAPRLLISGSSNRATGVPARFSGSGSGTDFTLTISSLEPEDFAVYYCLQLYNIPNTFGQGTKVEIKR | 1.4 nM | 1.8 nM
3 | MS-R 3.3H1 x 3.4L9 Fab (antibody, V domains shown) VH: QLVESGGGLVQPGGSLRLSCAASGFTFSSYAMSWVRQAPGKGLEWVSVISEKSRFIYYADSVKGRFTISRDNSKNTLYLQMNSLRAEDTAVYYCARLTHYARYYRYFDVWGQGTLVTVSS VL: DIVLTQSPATLSLSPGERATLSCRASRRIHVYYLAWYQQKPGQAPRLLIYGASSRATGVPARFSGSGSGTDFTLTISSLEPEDFATYYCQQTYDYPPTFGQGTKVEIKR | 2.16 nM | 2.97 nM
4 | MS-R 7.11H2 x 7.9L1(L1) Fab (antibody, V domains shown) VH: QLVESGGGLVQPGGSLRLSCAASGFTFSSYAMSWVRQAPGKGLEWVSAINANGYKKYYADSVKGRFTISRDNSKNTLYLQMNSLRAEDTAVYYCARGKGNTHKPYGYVRYFDVWGQGTLVTVSS VL: DIVLTQSPATLSLSPGERATLSCRASQRLSPRYLAWYQQKPGQAPRLLIYGASSRATGVPARFSGSGSGTDFTLTISSLEPEDFATYYCLQIYNMPITFGQGTKVEIKR | 0.1 nM | 1 nM
5 | MS-R 7.9H2 x 7.12L1 Fab (antibody, V domains shown) VH: QLVESGGGLVQPGGSLRLSCAASGFTFSSYAMSWVRQAPGKGLEWVSAINADGNRKYYADSVKGRFTISRDNSKNTLYLQMNSLRAEDTAVYYCARGKGNTHKPYGYVRYFDVWGQGTLVTVSS VL: DIVLTQSPATLSLSPGERATLSCRASQYVFRRYLAWYQQKPGQAPRLLISGSSNRATGVPARFSGSGSGTDFTLTISSLEPEDFAVYYCLQLYNIPNTFGQGTKVEIKR | 1.2 nM | 1.1 nM
6 | MS-R 3.4H3 x 3.4L9 Fab (antibody, V domains shown) VH: QLVESGGGLVQPGGSLRLSCAASGFTFSSYAMSWVRQAPGKGLEWVSVISQTGRKIYYADSVKGRFTISRDNSKNTLYLQMNSLRAEDTAVYYCARLTHYARYYRYFDVWGQGTLVTVSS VL: DIVLTQSPATLSLSPGERATLSCRASRRIHVYYLAWYQQKPGQAPRLLIYGASSRATGVPARFSGSGSGTDFTLTISSLEPEDFATYYCQQTYDYPPTFGQGTKVEIKR | 1.05 nM | 0.93 nM
7 | MS-R 3.4H1 x 3.4L9 Fab (antibody, V domains shown) VH: QLVESGGGLVQPGGSLRLSCAASGFTFSSYAMSWVRQAPGKGLEWVSAISETSIRKYYADSVKGRFTISRDNSKNTLYLQMNSLRAEDTAVYYCARLTHYARYYRYFDVWGQGTLVTVSS VL: DIVLTQSPATLSLSPGERATLSCRASRRIHVYYLAWYQQKPGQAPRLLIYGASSRATGVPARFSGSGSGTDFTLTISSLEPEDFATYYCQQTYDYPPTFGQGTKVEIKR | 0.25 nM | 0.5 nM
8 | MS-R 3.6H5 x 3.6L2 Fab (antibody, V domains shown) VH: QLVESGGGLVQPGGSLRLSCAASGFTFSSYAMSWVRQAPGKGLEWVSAISESGKTKYYADSVKGRFTISRDNSKNTLYLQMNSLRAEDTAVYYCARLTHYARYYRYFDVWGQGTLVTVSS VL: DIVLTQSPATLSLSPGERATLSCRASQFLSRYYLAWYQQKPGQAPRLLIYGASSRATGVPARFSGSGSGTDFTLTISSLEPEDFAVYYCQQTYNYPPTFGQGTKVEIKR | 1.26 nM | 0.84 nM
